Data reported in patent US20080124327A1 (published 2008).

Target: T1, Recombinant human CD44/Fc (R&D Systems, Minneapolis, Minn., USA) (human, UniProt P16070 21-220)
T1 construct: Purchased reagent, amine-coupled to a CM5 chip at about 500 RU; also called rhCD44; recombinant CD44; not shown: Fc part of the purchased fusion
Assay: SPR (Biacore T100); rhCD44/Fc amine-coupled to a CM5 chip, antibody injected at 0.67 to 667 nM, 1:1 model

T1 sequence (P16070 21-220): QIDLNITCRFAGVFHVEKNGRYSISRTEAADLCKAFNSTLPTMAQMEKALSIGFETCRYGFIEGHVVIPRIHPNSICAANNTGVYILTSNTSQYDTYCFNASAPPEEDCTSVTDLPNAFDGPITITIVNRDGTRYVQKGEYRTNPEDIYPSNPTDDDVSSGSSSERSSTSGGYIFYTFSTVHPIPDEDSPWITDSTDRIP

Row | Kd [nM] | Binder
1 | 6.32 | (hu)ARH460-16-2 variant HV1/KV1 (antibody, V domains shown, Humanized variable regions cloned into pANT18 (human IgG1 constant region, human kappa constant region); also called (hu)ARH460-16-2 variant 1; huARH460-16-2-variant 1) VH: EVQLVESGGGLVQPGGSLRLSCAASGFDFSRYWMSWVRQAPGKGLVWVGEVNPDSTSINYTPSLKDRFTISRDNAKNTLYLQMNSLRAEDTAVYYCTRPNYYGSRYHYYAMDYWGQGTLVTVSS VL: DIQMTQSPSSLSASVGDRVTITCRASQDINNYLNWYQQKPGKAPKLLIYYTSRLHSGVPSRFSGSGSGTDFTFTISSLQPEDIATYYCQQGSTLPFTFGQGTKLEIK
2 | 4.19 | H460-16-2 (murine monoclonal antibody produced by the hybridoma deposited with the ATCC as accession number PTA-4621) (antibody, V domains shown) VH: EVKLLESGGGLVQPGGSLKLSCATSGFDFSRYWMSWVRQAPGKGLEWIGEVNPDSTSINYTPSLKDQFIISRDNAKNTLDLQMSKVSSEDTALYYCTRPNYYGSRYHYYAMDYWGQGTSVTVSS VL: DIQMTQTTSSLSVSLGDRVTINCRASQDINNYLNWYQQKPDGTVKLLIYYTSRLHSGVPSRFSGSGSGTDFSLTISNLEKEDVATYFCQQGSTLPFTFGSGTKLEIK
